Measurements: patent US20130331333A1 (HADASIT MEDICAL RESEARCH SERVICES AND DEVELOPMENT, published 2013)
Residue numbers refer to the chain shown, from its start. In names and notes the source's numbering stands.

B1: wild-type human protease-activated receptor 1 (wt hPar1) (receptor, UniProt P25116 42-425, looked up)
chain: SFLLRNPNDKYEPFWEDEEKNESGLTEYRLVSINKSSPLQKQLPAFISEDASGYLTSSWLTLFVPSVYTGVFVVSLPLNIMAIVVFILKMKVKKPAVVYMLHLATADVLFVSVLPFKISYYFSGSDWQFGSELCRFVTAAFYCNMYASILLMTVISIDRFLAVVYPMQSLSWRTLGRASFTCLAIWALAIAGVVPLLLKEQTIQVPGLNITTCHDVLNETLLEGYYAYYFSAFSAVFFFVPLIISTVCYVSIIRCLSSSAVANRSKKSRALFLSAAVFCIFIICFGPTNVLLIAHYSFLSHTSTTEAAYFAYLLCVCVSSISCCIDPLIYYYASSECQRYVYSILCCKESSDPSSYNSSGQLMASKMDTCSSNLNNSIYKKLLT
notes: whole, on cells; Tested as protein in cell lysates (pull-down, co-immunoprecipitation, antibody array)
B2: HA-tagged wt hPar1 (receptor, human, UniProt P25116 42-425, looked up)
chain: B1 chain
notes: whole, on cells; Tested in lysates of transfected cells; also called HA-wt hPar1; HA-wthPar1; not shown: HA tag added downstream of the ATG start codon
B3: Y381A & Y383A hPar1 double mutant (receptor, human, UniProt P25116 42-425, looked up)
chain: B1 chain with Y340A, Y342A
notes: whole, on cells; also called Y381A&383A hPar1
B4: Y383A hPar1 (receptor, human, UniProt P25116 42-425, looked up)
chain: B1 chain with Y342A
notes: whole, on cells
B5: Y381A hPar1 (receptor, human, UniProt P25116 42-425, looked up)
chain: B1 chain with Y340A
notes: whole, on cells; also called hPar1-Y381A
B6: GST-PH-Etk/Bmx (other, UniProt P51813 1-111, looked up)
chain: MDTKSILEELLLKRSQQKKKMSPNNYKERLFVLTKTNLSYYEYDKMKRGSRKGSIEIKKIRCVEKVNLEEQTPVERQYPFQIVYKDGLLYVYASNEESRSQWLKALQKEIR
notes: domain: PH domain; Made as in Chen et al. 2001; also called GST-Etk-PH; GST-Etk/Bmx; not shown: GST tag

Key:
[1] = biological target: T1, Etk/Bmx (epithelial tyrosine kinase), wild type (UniProt P51813 1-675); assay: antibody array with MDA-MB-435 lysates before and after PAR1 activation, biotinylated anti-PAR1 detection
T1 construct: Plasmids after Tsai et al. 2000; also called wt-Etk
T1 sequence (looked up): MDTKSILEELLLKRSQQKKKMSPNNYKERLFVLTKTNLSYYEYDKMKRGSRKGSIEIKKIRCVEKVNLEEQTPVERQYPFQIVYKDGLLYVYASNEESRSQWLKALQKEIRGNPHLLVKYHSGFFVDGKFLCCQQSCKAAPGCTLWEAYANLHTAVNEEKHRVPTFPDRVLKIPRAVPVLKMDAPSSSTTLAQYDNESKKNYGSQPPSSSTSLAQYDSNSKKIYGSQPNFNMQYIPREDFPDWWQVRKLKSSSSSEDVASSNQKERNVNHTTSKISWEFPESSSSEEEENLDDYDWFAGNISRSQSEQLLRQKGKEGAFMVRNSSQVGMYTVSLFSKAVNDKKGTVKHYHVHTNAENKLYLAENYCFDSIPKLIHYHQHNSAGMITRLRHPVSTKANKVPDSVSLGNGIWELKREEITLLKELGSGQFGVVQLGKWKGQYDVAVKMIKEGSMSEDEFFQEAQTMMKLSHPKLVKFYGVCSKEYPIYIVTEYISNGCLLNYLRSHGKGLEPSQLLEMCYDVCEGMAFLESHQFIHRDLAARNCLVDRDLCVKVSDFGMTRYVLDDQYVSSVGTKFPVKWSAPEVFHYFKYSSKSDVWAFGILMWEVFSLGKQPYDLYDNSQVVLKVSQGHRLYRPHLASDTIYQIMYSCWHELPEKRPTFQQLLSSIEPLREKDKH
Procedure: (§1) Antibody array: A custom-made antibody array (hypromatrix) containing thirty antibodies against various proteins was prepared (FIG. 1). The antibodies were immobilized on a membrane, each at a pre-determined position, while retaining their capabilities of recognizing and capturing antigens as well as antigen-associated proteins. MDA-MB-435 cells were activated for 10 min with thrombin (1 U/ml). Untreated or activated cells were lysed with Triton extraction solution: 15 mM Tris, pH 7.5, 120 mM NaCl, 25 mM KCl, 2 mM EGTA, 2 mM EDTA, 0.1 mM DTT, 0.5% Triton X-100, […] and 0.5 mM PMSF. Protein extract was incubated on pre-blocked membrane for 2 h at room temperature. The antibody array was washed with TBST and incubated with biotinylated PAR₁ antibody (ATAP) for 2 h at room temperature. The antibody array was washed again with TBST, and the membrane was incubated with HRP-conjugated streptavidin for 1 h. Protein-protein interactions were detected by ECL and exposure to X-ray film.
(§2) To detect the putative mediator(s) linking PAR1 to potential signaling proteins, custom-made antibody-array membranes were examined. Aggressive breast carcinoma MDA-MB-435 cells (with high hPar1 levels) were incubated with the antibody-array membranes before and after PAR₁ activation (15 minutes). […]

c-Yes = c-Yes (UniProt P07947 2-543); assay: as above
Procedure: as §1, §2

T7-tagged Etk/Bmx = biological target: T2, T7-tagged Etk/Bmx (UniProt P51813 1-675); assay: anti-HA immunoprecipitation, anti-T7 blot
T2 construct: not shown: T7 tag
T2 sequence (looked up): T1 sequence (looked up)

[2] = biological target: T3, Shc adaptor protein (66, 52 and 46 kDa isoforms) (human, UniProt P29353 1-583, limits assumed); assay: association of Shc with PAR1 Y/A mutants (method not detailed)
T3 construct: Full-length endogenous protein in cell lysates; three isoforms detected together; also called Shc adapter protein
T3 sequence (looked up): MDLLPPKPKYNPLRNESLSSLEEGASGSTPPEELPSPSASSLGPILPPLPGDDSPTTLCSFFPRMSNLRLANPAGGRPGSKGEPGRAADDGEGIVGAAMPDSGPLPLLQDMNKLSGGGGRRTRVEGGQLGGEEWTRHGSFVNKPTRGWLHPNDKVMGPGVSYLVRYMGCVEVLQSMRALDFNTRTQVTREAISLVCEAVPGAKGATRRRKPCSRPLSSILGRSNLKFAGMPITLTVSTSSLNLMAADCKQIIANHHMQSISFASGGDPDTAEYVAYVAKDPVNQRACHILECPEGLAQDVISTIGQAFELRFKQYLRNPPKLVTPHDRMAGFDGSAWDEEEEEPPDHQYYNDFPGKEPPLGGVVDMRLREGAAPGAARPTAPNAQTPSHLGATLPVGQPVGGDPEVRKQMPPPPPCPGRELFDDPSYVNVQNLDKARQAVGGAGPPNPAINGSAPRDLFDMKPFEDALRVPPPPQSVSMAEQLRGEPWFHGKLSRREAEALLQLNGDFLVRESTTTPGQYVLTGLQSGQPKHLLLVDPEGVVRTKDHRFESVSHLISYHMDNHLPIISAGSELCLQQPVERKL

[3] = biological target: T1, Etk/Bmx (epithelial tyrosine kinase), …; assay: Etk/Bmx expressing cell lysates on GST-PAR2 C-tails
[4] = biological target: B1; assay: cell lysates on GST-Etk-PH column, anti-PAR1 blot
Procedure: The IP was performed using anti-PAR1 (ATAP, Santa Cruz, Calif.). FIGS. 7B and 7C are photographs of gels showing peptide competition for PAR1 binding to GST-PH-Etk/Bmx.
GST fusion protein columns. Fusion proteins were purified from transformed Escherichia coli bacteria that had been stimulated with isopropyl-β-D-thio-galactopyranoside (IPTG) at a concentration of […]. Bacteria were lysed according to published procedures, and then immobilized on glutathione Sepharose beads (Pharmacia). Briefly, MDA-MB-435 cell lysates were applied to GST-PAR1C-tail or GST control columns. After 2 h binding periods to the designated protein/s cell lysates to the columns, a washing step was performed. The washes (×3) were carried out using a “wash buffer” including: 100 mM NaCL, 20 mM EDTA, 10 mM Tris, pH 8.0 and 1% Triton ×100. This step was performed in order to wash out all non-specific proteins, leaving the GST-PAR₁-C-tail column firmly bound to targeted cell lysate proteins. Next, elution of bound proteins was performed via the addition of gel “sample buffer” and appropriate boiling. The samples were run electrophoretically on SDS-PAGE gels, followed by immunoblotting with the indicated antibodies and ECL detection. GST-PH-Etk/Bmx. The PH domain in Etk/Bmx was bound to GST column as previously described (Chen R, et al. (2001) Nat Cell Biol. 3: 439-444). […]

Chain of c-Yes (P07947 2-543 limits assumed): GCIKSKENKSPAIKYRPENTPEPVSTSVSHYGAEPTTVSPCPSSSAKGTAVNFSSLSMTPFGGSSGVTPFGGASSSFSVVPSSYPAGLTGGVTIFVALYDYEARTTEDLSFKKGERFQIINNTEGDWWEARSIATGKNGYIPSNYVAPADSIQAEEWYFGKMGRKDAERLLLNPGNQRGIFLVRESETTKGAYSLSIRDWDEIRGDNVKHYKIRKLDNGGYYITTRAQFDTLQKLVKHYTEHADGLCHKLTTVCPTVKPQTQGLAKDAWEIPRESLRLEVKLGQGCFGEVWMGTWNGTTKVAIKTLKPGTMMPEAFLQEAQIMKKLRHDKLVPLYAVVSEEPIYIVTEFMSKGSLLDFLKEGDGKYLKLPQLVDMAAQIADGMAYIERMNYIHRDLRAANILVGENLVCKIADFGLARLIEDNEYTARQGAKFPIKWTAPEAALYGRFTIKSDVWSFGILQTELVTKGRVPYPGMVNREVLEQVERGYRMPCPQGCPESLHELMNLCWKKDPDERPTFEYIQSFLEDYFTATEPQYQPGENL

B1: binds [1]; binds (c-Yes).

B2: binds (T7-tagged Etk/Bmx).

B3: binds [2].

B4: binds [2].

B5: binds [2].

SHDFRDHAKNALLCRSVRTVKQMQVSLTSKKHSRKSSSYSSSSTTVKTSY (other, human, UniProt P55085 348-397, looked up, domain: PAR2 C-tail; not shown: GST tag) [GST-PAR2 C-tail wt]: binds [3].

B6: binds [4].
